# Measurements published in patent US20200347130A1 (JIANGSU HENGRUI MEDICINE, published 2020).
# Numbering of substitutions follows the chain as printed.
# B1: h1719-006 (antibody, V domains shown)
# VH: EVTLKESGPVLVKPTETLTLTCTVSGFSLSSYGVSWVRQPPGKGLEWLGVIWGDGNTNYHSVLISRLTISKDTSKSQVVLTLTNMDPVDTATYYCAKNNYYGSRYGYPMDYWGQGTTVTVSS
# VL: DIQMTQSPSSVSASVGDRVTITCKATQDVGTAVAWYQQKPGKSPKLLIYWASTRHTGVPERFSGSGSGTDFTLTISSLQPEDFATYFCQQYGSSVLTFGGGTKVEIK
# notes: also called M719-006
# B2: h1719-014 (antibody, V domains shown)
# VH: B1 VH with N99Y, M109L
# VL: B1 VL
# notes: Only variable regions are tied to this name; also called M719-014
# Experiments:
# [1] = target: T1, Full-length human CD96 on CHO-S cells (human, UniProt P40200 22-585); experiment: cell ELISA, fixed CD96-overexpressing CHO-S cells
# T1 construct: also called CD96-CHOs; hCD96-CHOs
# T1 sequence: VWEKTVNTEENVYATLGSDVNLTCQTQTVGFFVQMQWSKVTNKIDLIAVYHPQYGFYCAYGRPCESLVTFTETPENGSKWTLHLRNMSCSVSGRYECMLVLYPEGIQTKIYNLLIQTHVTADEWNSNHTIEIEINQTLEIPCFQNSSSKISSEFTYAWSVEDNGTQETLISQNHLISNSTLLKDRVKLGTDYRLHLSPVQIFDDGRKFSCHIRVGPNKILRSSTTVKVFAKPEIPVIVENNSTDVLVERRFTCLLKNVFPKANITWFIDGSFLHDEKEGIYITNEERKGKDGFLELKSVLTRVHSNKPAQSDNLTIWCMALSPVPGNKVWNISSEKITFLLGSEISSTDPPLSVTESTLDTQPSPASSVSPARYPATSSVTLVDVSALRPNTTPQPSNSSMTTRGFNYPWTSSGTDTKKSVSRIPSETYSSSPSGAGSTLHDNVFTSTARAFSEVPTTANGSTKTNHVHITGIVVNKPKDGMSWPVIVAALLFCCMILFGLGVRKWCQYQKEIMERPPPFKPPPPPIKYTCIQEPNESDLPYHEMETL
# Protocol: The binding capacity of the anti-CD96 antibody was tested by binding experiments of the antibody to human CD96 protein overexpressing CHO-S cells. The full-length CD96 plasmid was transfected into CHO-S cells by electrotransfection, and cells were then screened for two weeks under pressure for the detection of the expression of CD96. After the over-expressing cells were fixed at the bottom of the 96-well plate, the density of the signal after adding the antibody was used to judge the binding activity of the antibody to CD96 overexpressing CHO-S cells. The specific experimental method is as follows:
# The cells were seeded at a density of 9×10⁴/100 μL/well in a 96-well plate and cultured overnight. After aspirating the supernatant, the plate was washed once with PBS, subsequently, 100 μl/well immunostaining fixation solution (Biyuntian, P0098) was added and fixed for one hour at room temperature, and the plate was washed three times with PBS. Once the liquid was discarded, 250 μl/well of 5% skim milk (BD, 232100) blocking solution diluted with PBS was added, and the plate was blocked in an incubator at 37° C. for 2.5 hours. After blocking, the blocking solution was discarded, the plate was washed 4 times with PBST buffer (pH 7.4 PBS containing 0.05% tween-20), followed by diluting 50 μl/well of different concentrations of the antibodies (hybridoma purification antibody or humanized antibody) to be tested the plate was incubated in an incubator at 37° C. for 2 hours. After incubation, the plate was wash 4 times with PBST. […] After washing the plate 4 times with PBST, 50 μl/well of TMB chromogenic substrate (KPL, Cat No. 52-00-03) was added, the plate was incubated at room temperature for 10-25 min, followed by adding 50 μl/well of 1M H₂SO₄ to stop the reaction. The absorption value was read at 450 nm with a NOVOStar microplate reader, and the EC50 value of the CD96 antibodies to CD96 overexpressing CHO-S cells was calculated (see FIG. 1 and Table 15).
# [2] = target: T2, CD96 extracellular region with His tag (CD96-His) (human, UniProt P40200 22-519); experiment: ELISA, CD96-His coated
# T2 construct: also called CD96-ECD-His; Bio-CD96-His (biotin-labelled form)
# T2 sequence: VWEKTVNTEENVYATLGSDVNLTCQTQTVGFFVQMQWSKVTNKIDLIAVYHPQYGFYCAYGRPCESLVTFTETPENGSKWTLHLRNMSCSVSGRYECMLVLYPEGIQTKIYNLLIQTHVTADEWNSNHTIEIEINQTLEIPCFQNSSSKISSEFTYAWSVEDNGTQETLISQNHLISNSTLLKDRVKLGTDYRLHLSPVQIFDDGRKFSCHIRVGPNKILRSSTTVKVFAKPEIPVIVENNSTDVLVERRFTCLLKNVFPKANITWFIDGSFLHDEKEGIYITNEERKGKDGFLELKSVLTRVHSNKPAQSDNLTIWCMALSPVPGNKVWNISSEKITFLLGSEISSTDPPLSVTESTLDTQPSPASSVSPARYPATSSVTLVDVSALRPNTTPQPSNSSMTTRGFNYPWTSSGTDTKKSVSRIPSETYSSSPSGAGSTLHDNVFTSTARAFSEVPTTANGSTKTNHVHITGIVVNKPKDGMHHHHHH
# Protocol: The binding capacity of the anti-CD96 antibody was tested by ELISA to determine the binding of the antibody to human CD96 protein. The His-tagged CD96 fusion protein was used to coat the microtiter plate, and the intensity of the signal after adding with the antibody was used for evaluating the binding activity of the antibody and CD96. The specific experimental method is as follows:
# CD96-His with the sequence of SEQ ID NO: 4 prepared in Embodiment 1 was diluted to a concentration of 2 μg/ml with PBS buffer (Shanghai Yuanpei Biotechnology Co., Ltd. Cat No. B320), pH 7.4, added to a 96-well microtiter plate (Corning, Cat No. CLS3590-100EA) at a volume of 50 μl/well, and placed in an incubator at 37° C. for 2 hours. After discarding the liquid, 250 μl/well of 5% skim milk (BD, Cat No. 232100) blocking solution diluted with PBS was added, and the plate was incubated at 37° C. for 2.5 hours or at 4° C. overnight (16-18 hours) for blocking. After blocking, the blocking solution was discarded, and the plate was washed 4 times with PBST buffer (pH 7.4 PBS containing 0.05% tween-20). 50 μl/well of different concentrations of the antibodies to be tested (hybridoma purification antibody or humanized antibody) diluted with sample dilution was added, and the plate was incubated in an incubator at 37° C. for 1 hour. […] After washing the plate 4 times with PBST, 50 μl/well of TMB chromogenic substrate (KPL, Cat No. 52-00-03) was added, and the plate was incubated at room temperature for 5-15 minutes, followed by adding 50 μl/well of 1M H₂SO₄ to stop the reaction. The absorption value was read at 450 nm with a NOVOStar microplate reader, and the EC50 value of the binding of CD96 antibody to human CD96 was calculated (see Table 13).
# [3] = target: T2, CD96 extracellular region with His tag …; experiment: SPR (Biacore), antibody captured, CD96-ECD-His as mobile phase
# From the text: Protein A biosensor chip was used to capture antibodies to be tested, then CD96 antigen was flowed on the surface of the chip, and real time reaction signal was detected by Biacore to obtain the binding and dissociation curve. After the dissociation of each experimental cycle was completed, the biosensor chip was washed and regenerated with a glycine-hydrochloric acid regeneration solution (pH 1.5).
Binder,EC50 [1],EC50 [2],Kd [3]
B1,0.016 nM,0.083 nM,13.1 nM
B2,0.02 nM,0.091 nM,14.9 nM
